Experiments:
[1] = biological target: VarC (VP1-Cap-His: entire PCV2b Cap fused to the C-terminus of MPyV VP1) (mouse polyomavirus (MPyV) | porcine circovirus 2b (PCV2b)) (UniProt P03090); test: native gel or EMSA; blue native PAGE (BN-PAGE) of purified VarC, native 3-12% gradient gel, Gelcode staining
[2] = biological target: MPyV VP1 (major capsid protein of mouse polyomavirus) as VLPs of the VarB structure (mouse polyomavirus (MPyV)) (UniProt P03090); test: co-purification with VLPs (SDS-PAGE, Western blot, band densitometry); VP1 and FLAG-Cap-tVP3 co-expressed in insect cells; purified VLPs VarB resolved by SDS-PAGE, anti-FLAG blot; densities of Coomassie-stained bands measured

Substance: VarC (VP1-Cap-His: entire PCV2b Cap fused to the C-terminus of MPyV VP1) (from UniProt P03090 1-383)
- stoichiometry N [1]: 10

Substance: FLAG-Cap-tVP3 (entire PCV2b Cap fused with truncated MPyV minor capsid protein VP3)
- stoichiometry N (FLAG-Cap-tVP3 molecules per one particle) [2]: 12
- stoichiometry N ([2]; scale: molecules of Cap protein per one VLP): 14

Reference: article PMC5602543
